Results reported in patent publication EP1674575A2 (LA JOLLA INSTITUTE FOR ALLERGY AND IMMUNOLOGY, dated 2006).

B2: LIGHTt66-FLAG mutant Y173F (ligand, human, UniProt O43557 67-240, looked up, not shown: small tags and cut ends)
chain: EMVTRLPDGPAGSWEQLIQERRSHEVNPAAHLTGANSSLTGSGGPLLWETQLGLAFLRGLSYHDGALVVTKAGYYYIYSKVQLGGVGCPLGLASTITHGLYKRTPRFPEELELLVSQQSPCGRATSSSRVWWDSSFLGGVVHLEAGEKVVVRVLDERLVRLRDGTRSYFGAFMV
notes: range 67-240; Homotrimer, from transiently transfected 293T cells
B3: LIGHTt66-FLAG mutant Q117T (ligand, human, UniProt O43557 67-240, looked up, not shown: small tags and cut ends)
chain: EMVTRLPDGPAGSWEQLIQERRSHEVNPAAHLTGANSSLTGSGGPLLWETTLGLAFLRGLSYHDGALVVTKAGYYYIYSKVQLGGVGCPLGLASTITHGLYKRTPRYPEELELLVSQQSPCGRATSSSRVWWDSSFLGGVVHLEAGEKVVVRVLDERLVRLRDGTRSYFGAFMV
notes: as for B2
B4: LIGHTt66-FLAG mutant L120Q (ligand, human, UniProt O43557 67-240, looked up, not shown: small tags and cut ends)
chain: EMVTRLPDGPAGSWEQLIQERRSHEVNPAAHLTGANSSLTGSGGPLLWETQLGQAFLRGLSYHDGALVVTKAGYYYIYSKVQLGGVGCPLGLASTITHGLYKRTPRYPEELELLVSQQSPCGRATSSSRVWWDSSFLGGVVHLEAGEKVVVRVLDERLVRLRDGTRSYFGAFMV
notes: as for B2
B8: mouse LTβR:Fc (amino acid residues 1 to Met221 of the extracellular domain of mouse LTβR) (Fc fusion, UniProt P50284 31-221, looked up)
chain: QLVPPYRIENQTCWDQDKEYYEPMHDVCCSRCPPGEFVFAVCSRSQDTVCKTCPHNSYNEHWNHLSTCQLCRPCDIVLGFEEVAPCTSDRKAECRCQPGMSCVYLDNECVHCEEERLVLCQPGTEAEVTDEIMDTDVNCVPCKPGHFQNTSSPRARCQPHTRCEIQGLVEAAPGTSYSDTICKNPPEPGAM
notes: range 1-221; also called mLTβR:Fc; murine LTβR:Fc; not shown: Fc part
B9: HVEM:Fc (extracellular region of HVEM, 1 to K184, fused to the Fc region of human IgG1) (Fc fusion, UniProt Q92956 39-184, looked up)
chain: LPSCKEDEYPVGSECCPKCSPGYRVKEACGELTGTVCEPCPPGTYIAHLNGLSKCLQCQMCDPAMGLRASRNCSRTENAVCGCSPGHFCIVQDGDHCAACRAYATSSPGQRVQKGGTESQDTLCQNCPPGTFSPNGTLEECQHQTK
notes: range 1-184; Bivalent chimeric protein made in baculovirus; also called huHVEM:Fc; hu HVEM:Fc; not shown: Fc region of human IgG1

Key:
[1] = target: T1, p30 (LIGHT), the 30 kDa cell surface HVEM ligand of activated II-23.D7 cells and human T cells (human, UniProt O43557 1-240); experiment: competition for HVEM:Fc binding to activated II-23.D7 cells, flow cytometry
T1 construct: whole, on cells; Endogenous protein, tested on the cell surface in flow cytometry and from detergent extracts in precipitations; also called 30 kDa protein

[2] = target: LTβR (lymphotoxin β receptor) expressed by cells (human, UniProt P36941 31-435); experiment: cell-based or functional assay
[3] = target: B9; experiment: SPR (BIAcore)
[4] = target: B8; experiment: ELISA, receptor:Fc capture, anti-FLAG detection
human LTβR:Fc = target: T2, human LTβR:Fc (human, UniProt P36941 31-227, limits assumed); experiment: SPR (BIAcore), receptor:Fc amine-coupled, LIGHT mutant as analyte 100-500 nM
T2 construct: also called huLTβR:Fc; hu LTβR:Fc; not shown: Fc region of human IgG1

[5] = target: B4; experiment: ELISA, receptor:Fc capture, anti-FLAG detection
[6] = target: B2; experiment: ELISA, receptor:Fc capture, anti-FLAG detection
[7] = target: T1, p30 (LIGHT), the 30 kDa cell surface …; experiment: precipitation from detergent extracts of activated II-23.D7 cells; competition by flow cytometry
gD-1 (Δ290-299t) = target: T3, gD-1 (Δ290-299t) (herpes simplex virus type 1, UniProt Q69091 26-331); experiment: binding inhibition, flow cytometry
T3 construct: also called gD-1 (Δ1290 - 299t)

[8] = target: T4, LTα1β2 complex (LTβ 33 kDa and LTα 23-25 kDa) from detergent extracts of PMA activated II-23.D7 cells (human, UniProt P01374 35-205; Q06643 1-244); experiment: precipitation with murine LTβR:Fc, 2D electrophoresis (Figure 4A)
T4 construct: Endogenous membrane complex, precipitated from detergent extracts; also called LTβ and LTα complex
T4 sequence (looked up) 1: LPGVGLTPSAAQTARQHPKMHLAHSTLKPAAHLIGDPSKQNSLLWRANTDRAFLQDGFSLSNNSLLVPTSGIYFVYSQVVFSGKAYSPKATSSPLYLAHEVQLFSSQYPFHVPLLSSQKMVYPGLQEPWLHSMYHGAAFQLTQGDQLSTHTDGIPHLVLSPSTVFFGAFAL
T4 sequence (looked up) 2: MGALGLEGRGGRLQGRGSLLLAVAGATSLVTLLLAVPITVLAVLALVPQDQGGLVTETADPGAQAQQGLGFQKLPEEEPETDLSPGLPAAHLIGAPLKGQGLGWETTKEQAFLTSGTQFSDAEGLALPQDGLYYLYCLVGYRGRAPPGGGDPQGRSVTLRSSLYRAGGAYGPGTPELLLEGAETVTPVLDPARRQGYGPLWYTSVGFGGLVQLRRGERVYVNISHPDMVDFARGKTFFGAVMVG

LTαTyr108Phe = target: T5, LTαTyr108Phe (UniProt P01374 35-205); experiment: competition for HVEM:Fc binding to II-23.D7 cells, flow cytometry (Figure 3)
T5 construct: also called LTαY108F; Y108F
T5 sequence (looked up): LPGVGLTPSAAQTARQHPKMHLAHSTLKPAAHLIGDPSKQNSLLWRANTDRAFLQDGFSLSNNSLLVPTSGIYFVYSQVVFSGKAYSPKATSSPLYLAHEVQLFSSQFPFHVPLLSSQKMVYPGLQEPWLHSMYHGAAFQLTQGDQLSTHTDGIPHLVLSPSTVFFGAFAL

LTα homotrimer = target: T6, LTα homotrimer (UniProt P01374 35-205); experiment: precipitation of 35S-labeled secreted proteins, SDS-PAGE
T6 construct: also called recombinant LTα; secreted LTα
T6 sequence (looked up): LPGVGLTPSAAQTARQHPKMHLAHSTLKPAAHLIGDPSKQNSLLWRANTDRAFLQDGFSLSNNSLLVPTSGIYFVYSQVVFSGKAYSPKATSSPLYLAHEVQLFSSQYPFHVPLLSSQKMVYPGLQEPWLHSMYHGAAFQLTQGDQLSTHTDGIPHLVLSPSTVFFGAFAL

[9] = target: B2; experiment: SPR (BIAcore)
[10] = target: T1, p30 (LIGHT), the 30 kDa cell surface …; experiment: flow cytometry, saturation binding to activated II-23.D7 cells
TNF = target: T7, TNF (UniProt P01375 77-233); experiment: precipitation of 35S-labeled secreted proteins of II-23.D7 cells, SDS-PAGE
T7 construct: also called TNF (17 kDa)

[11] = target: B2; experiment: SPR (BIAcore), receptor:Fc amine-coupled, LIGHT mutant as analyte 100-500 nM
[12] = target: B3; experiment: as above

T2 sequence (P36941 31-227 limits assumed): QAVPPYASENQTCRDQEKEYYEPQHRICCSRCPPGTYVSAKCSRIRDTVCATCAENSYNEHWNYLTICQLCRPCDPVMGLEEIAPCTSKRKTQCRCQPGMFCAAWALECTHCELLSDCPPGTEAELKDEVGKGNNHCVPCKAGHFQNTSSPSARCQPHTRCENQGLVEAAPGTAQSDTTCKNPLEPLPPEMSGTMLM
T3 sequence (Q69091 26-314, tags or fused parts left off): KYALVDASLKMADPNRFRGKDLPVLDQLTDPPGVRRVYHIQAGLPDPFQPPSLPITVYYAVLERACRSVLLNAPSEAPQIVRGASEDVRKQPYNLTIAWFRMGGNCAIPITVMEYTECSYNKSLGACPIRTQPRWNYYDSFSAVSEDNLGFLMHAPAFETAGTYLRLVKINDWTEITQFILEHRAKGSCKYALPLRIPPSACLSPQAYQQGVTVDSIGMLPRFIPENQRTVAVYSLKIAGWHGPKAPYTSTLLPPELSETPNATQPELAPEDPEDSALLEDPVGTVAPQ
T7 sequence (P01375 77-233 limits assumed): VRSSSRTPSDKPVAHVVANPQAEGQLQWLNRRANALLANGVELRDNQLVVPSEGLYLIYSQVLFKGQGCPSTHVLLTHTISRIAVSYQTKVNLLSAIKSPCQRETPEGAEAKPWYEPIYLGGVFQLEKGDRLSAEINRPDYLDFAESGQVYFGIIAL

B1: Fas:Fc (Fc fusion, UniProt P25445 26-173, looked up)
chain: QVTDINSKGLELRKTVTTVETQNLEGLHHDGQFCHKPCPPGERKARDCTVNGDEPDCVPCQEGKEYTDKAHFSSKCRRCRLCDEGHGLEVEINCTRTQNTKCRCKPNFFCNSTVCEHCDPCTKCEHGIIKECTLTSNTKCKEEGSRSN
notes: not shown: Fc region of human IgG1
B1: no binding [1].

For B2, the “fold induction of ICAM expression by NHDF cells (flow cytometry, 20 nM)” value [2] was 2.5 fold, the “fold lower affinity than LIGHT t66” value [3] was greater than 40 fold and the binding result [4] was “no binding”. The Kd (human LTβR:Fc) was 31 nM, the koff (human LTβR:Fc) was 0.0011 s⁻¹ and the kon (human LTβR:Fc) was 37000 M⁻¹ s⁻¹.

B3 was tested, and the Kd (human LTβR:Fc) was 1.5 nM and the koff (human LTβR:Fc) was 4.5e-05 s⁻¹.

B4: binds [4].

B5: mouse HVEM:Fc (mouse HVEM Met1 to Ser205 fused to the Fc region of human IgG1) (Fc fusion, UniProt Q80WM9 39-205, looked up)
chain: QPSCRQEEFLVGDECCPMCNPGYHVKQVCSEHTGTVCAPCPPQTYTAHANGLSKCLPCGVCDPDMGLLTWQECSSWKDTVCRCIPGYFCENQDGSHCSTCLQHTTCPPGQRVEKRGTHDQDTVCADCLTGTFSLGGTQEECLPWTNCSAFQQEVRRGTNSTDTTCSS
notes: range 1-205; also called mHVEM:Fc; murine HVEM:Fc; not shown: Fc region of human IgG1 (printed IgC1) at the 3' end of the HVEM insert
B5: binds [5]; no binding [6].

B6: TNFR60:Fc (Fc fusion, UniProt P19438 30-211, looked up)
chain: LVPHLGDREKRDSVCPQGKYIHPQNNSICCTKCHKGTYLYNDCPGPGQDTDCRECESGSFTASENHLRHCLSCSKCRKEMGQVEISSCTVDRDTVCGCRKNQYRHYWSENLFQCFNCSLCLNGTVHLSCQEKQNTVCTCHAGFFLRENECVSCSNCKKSLECTKLCLPQIENVKGTEDSGTT
notes: also called TNFR:Fc; soluble type I TNFR protein (TNFR:Fc); not shown: Fc region of human IgG1
B6: no binding [7]; no binding (gD-1 (Δ290-299t)).

B7: recombinant soluble LTα1β2 (ligand)
chain 1: LPGVGLTPSAAQTARQHPKMHLAHSTLKPAAHLIGDPSKQNSLLWRANTDRAFLQDGFSLSNNSLLVPTSGIYFVYSQVVFSGKAYSPKATSSPLYLAHEVQLFSSQYPFHVPLLSSQKMVYPGLQEPWLHSMYHGAAFQLTQGDQLSTHTDGIPHLVLSPSTVFFGAFAL
chain 2: QDQGGLVTETADPGAQAQQGLGFQKLPEEEPETDLSPGLPAAHLIGAPLKGQGLGWETTKEQAFLTSGTQFSDAEGLALPQDGLYYLYCLVGYRGRAPPGGGDPQGRSVTLRSSLYRAGGAYGPGTPELLLEGAETVTPVLDPARRQGYGPLWYTSVGFGGLVQLRRGERVYVNISHPDMVDFARGKTFFGAVMVG
For B7, the “fold decrease in relative anti-HCMV activity (against LTα and LIGHT)” value [2] was roughly 10 fold.

B8: binds [8].

With B9 the binding result (LTαTyr108Phe) was “no binding”, the binding result (LTα homotrimer) was “binds” and the Kd [9] was 180 nM. The EC50 [10] was roughly 20 nM, the binding result (TNF) was “no binding” and the Kd [11] was 173 nM. For the same binder, the koff [11] was 0.0033 s⁻¹, the kon [11] was 19000 M⁻¹ s⁻¹ and the Kd [12] was 0.3 nM. For the same binder, the kon [12] was 20000 M⁻¹ s⁻¹.
